# Patent publication US20240180982A1 (published 2024)
# B1: HAdV-B3k (other)
# chain: TFDSSNSIALKNNTLWTGPKPEANCIIEYGKQNPDSKLTLILVKNGGIVNGYVTLMGASDYVNTLFKNKNVSINVELYFDATGHILPDSSSLKTDLELKYKQTADFSARGFMPSTTAYPFVLPNAGTHNENYIFGQCYYKASDGALFPLEVTVMLNKRLPDSRTSYVMTFLWSLNAGLAPETTQATLITSPFTFSYIREDD
# How the values were obtained:
# [1] = target: Recombinant Human CXADR Fc Chimera Protein (CAR; R&D Systems, 3336-CX-050) (human) (UniProt P78310); experiment: SPR (BIAcore 3000), receptor amine coupled to CM5 chip, knob as analyte
# Sequence of Recombinant Human CXADR Fc Chimera Protein (CAR; R&D Systems, 3336-CX-050) (human) (P78310 20-237, change not shown): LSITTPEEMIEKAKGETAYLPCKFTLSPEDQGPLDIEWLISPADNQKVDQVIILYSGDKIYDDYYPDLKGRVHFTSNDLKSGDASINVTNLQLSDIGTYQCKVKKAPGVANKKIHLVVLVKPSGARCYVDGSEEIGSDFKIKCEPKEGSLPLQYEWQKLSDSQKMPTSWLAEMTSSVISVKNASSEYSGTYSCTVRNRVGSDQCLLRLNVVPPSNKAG
# [2] = target: Recombinant Human Desmoglein-2 Fc Chimera Protein (R&D Systems, 947-DM-100) (human) (UniProt Q14126); experiment: SPR (BIAcore 3000), receptor amine coupled to CM5 chip, knob as analyte, equilibrium fit
# [3] = target: Recombinant Human CD46 Protein (His Tag) (Sino biological, 12239-H08H) (human) (UniProt P15529); experiment: as above
# [4] = target: CAR on CHO-CAR cells (human) (UniProt P78310)
# Sequence of CAR on CHO-CAR cells (human) (P78310 20-365): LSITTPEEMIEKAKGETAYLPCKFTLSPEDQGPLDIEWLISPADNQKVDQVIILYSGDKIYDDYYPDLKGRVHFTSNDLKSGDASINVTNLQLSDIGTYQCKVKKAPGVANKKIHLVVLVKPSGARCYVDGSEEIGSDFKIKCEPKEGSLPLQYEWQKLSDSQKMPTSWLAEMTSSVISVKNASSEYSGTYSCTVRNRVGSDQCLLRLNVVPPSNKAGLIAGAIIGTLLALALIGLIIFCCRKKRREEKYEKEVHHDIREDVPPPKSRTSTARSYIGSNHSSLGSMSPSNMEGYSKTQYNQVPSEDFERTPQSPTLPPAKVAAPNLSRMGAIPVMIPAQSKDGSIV
# [5] = target: Recombinant Human Desmoglein-2 Fc Chimera Protein (R&D Systems, 947-DM-100) (human) (UniProt Q14126); experiment: SPR
# [6] = target: T1, Recombinant Human Desmoglein-2 Fc Chimera Protein (R&D Systems, 947-DM-100) (human, UniProt Q14126 50-609); experiment: SPR
# T1 chain: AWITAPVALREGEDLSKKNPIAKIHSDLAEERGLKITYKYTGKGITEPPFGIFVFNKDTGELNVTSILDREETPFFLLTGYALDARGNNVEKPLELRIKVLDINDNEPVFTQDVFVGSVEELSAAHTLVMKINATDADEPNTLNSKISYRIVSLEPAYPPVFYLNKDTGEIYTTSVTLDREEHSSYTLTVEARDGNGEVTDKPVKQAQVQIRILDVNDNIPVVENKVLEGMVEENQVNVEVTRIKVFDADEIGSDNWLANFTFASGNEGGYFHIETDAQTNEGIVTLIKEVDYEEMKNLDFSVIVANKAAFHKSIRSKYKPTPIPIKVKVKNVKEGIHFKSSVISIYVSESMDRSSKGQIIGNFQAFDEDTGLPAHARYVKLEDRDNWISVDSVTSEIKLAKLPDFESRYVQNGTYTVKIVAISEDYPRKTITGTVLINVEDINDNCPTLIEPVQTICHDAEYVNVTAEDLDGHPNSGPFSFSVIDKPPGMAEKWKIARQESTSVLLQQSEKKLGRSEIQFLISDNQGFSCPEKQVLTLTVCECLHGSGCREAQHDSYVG
# [7] = target: T2, Recombinant Human CD46 Protein (His Tag) (Sino biological, 12239-H08H) (human, UniProt P15529 35-328); experiment: SPR
# T2 chain: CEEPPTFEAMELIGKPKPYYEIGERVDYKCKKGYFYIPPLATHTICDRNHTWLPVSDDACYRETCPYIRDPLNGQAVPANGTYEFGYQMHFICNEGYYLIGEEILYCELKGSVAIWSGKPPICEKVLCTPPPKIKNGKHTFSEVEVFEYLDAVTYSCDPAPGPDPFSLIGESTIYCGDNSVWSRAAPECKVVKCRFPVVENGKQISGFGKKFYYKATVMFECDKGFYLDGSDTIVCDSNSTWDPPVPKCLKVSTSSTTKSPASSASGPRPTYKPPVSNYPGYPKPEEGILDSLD
Molecule,Kd [1],Kd [2],Kd [3],fold lower affinity than HAdV-C5 (by IC50 values) [4],Kd [5],Kd [6],Kd [7]
Recombinant HAdV-D10 fiber knob protein,0.44 µM,125 µM,20 µM,16.5 fold,–,–,–
Recombinant HAdV-C5 fiber knob protein (from UniProt P11818 387-581),0.00076 µM,–,–,–,125 µM,–,–
B1,–,–,–,–,–,66.9 µM,0.16 µM
